From patent US20120190616A1 (IPSEN PHARMA S A S, published 2012)
Residue numbers refer to the chain shown, from its start.

B1: (Arg^27,65,68, Leu^59)hIGF-1(1-70)-OH (ligand)
chain: GPETLCGAELVDALQFVCGDRGFYFNRPTGYGSSSRRAPQTGIVDECCFRSCDLRRLELYCAPLRPARSA
notes: synthetic; free acid C-terminus; disulfides 6-48, 47-52, 18-61
B2: (Leu^59, Arg^65,68)hIGF-1(1-70)-OH (ligand)
chain: B1 chain with R27K
notes: as for B1
B3: (Pro^27, Lys^28, Asn^59)hIGF-1(1-70)-OH (ligand)
chain: B1 chain with R27P, P28K, L59N, R65K, R68K
notes: as for B1
B4: (Asn^59, Thr^63, des-Leu^64, des-Lys^65, Glu^70)hIGF-1(1-70)-OH (ligand)
chain: GPETLCGAELVDALQFVCGDRGFYFNKPTGYGSSSRRAPQTGIVDECCFRSCDLRRLENYCATPAKSE
notes: synthetic; Leu64 and Lys65 deleted; free acid C-terminus; disulfides 6-48, 47-52, 18-61
B5: (Pro^27, Lys^28, Asn^59)hIGF-1(1-62)-OH (ligand)
chain: GPETLCGAELVDALQFVCGDRGFYFNPKTGYGSSSRRAPQTGIVDECCFRSCDLRRLENYCA
notes: synthetic; free acid C-terminus

Target: T1, native IGF-1 receptor of human MCF-7 cells (human, UniProt P08069 31-1367)
T1 construct: whole, on cells; assayed in membranes prepared from MCF-7 cells
Test: radioligand competition, [125I]IGF-1 on MCF-7 cell membranes
Method: The homogenates were washed twice by centrifugation (39,000 g/10 minutes) and the final pellets were resuspended in 50 mM Tris-HCl containing 2.5 mM MgCl₂ and 0.1% BSA.
Unlabeled competing test peptides were sometimes included. The final assay volume was 0.25 ml. […] The supernatant was decanted and the radioactive particles trapped in the pellet was counted by gamma spectrometry (Wallac LKB, Gaithersburg, Md., USA).

Row | IC50 | Binder
1 | 2.69 nM | B1
2 | 2.89 nM | B2
3 | 0.88 nM | B3
4 | 19 nM | B4
5 | 1.14 nM | B5
